In a protein production outcome set (Wang et al. 2014):

Assay: label from the status in PepcDB records

Sequence | protein production
MTHYHFVGIKGSGMSSLAQIMHDLGHEVQGSDIESYVFTEVALRNKGIKILPFDANNITKEMVVIQGNAFPDNHEEIVRAHELKLDIIKYHDFLGHVINQYTSVAVTGAHGKTSTTGLLSHVMNGDKKTSFLIGDGTGMGLPGSDYFAFEACEYRRHFLSYHPDYAIMTNIDFDHPDYFKNIDDVYDAFQHMALNVKKGIIAWGDDEYLRKLDVDIPVYYYGFKETDDIYAKNIQITEKGTQFDVYIKGEFYDQFLSPQYGNHNILNALAVIAISYLEDMNVENIKEALITFGGVKRRFNETKVSNQVIVDDYAHHPREISATIETARKKYPQKDVVAVFQPHTFSRTQAFLNEFAESLSKADQVFLCEIFGSIRENTGDLTIEDLINRIDGSTLIDENSIDVLEKFDNAVILFMGAGDIQKLLKAYFEKLGVKNDF | failed
MTIADIVMLTATIIIWSLLIVNILLVIFGYVYYLKTDPVAPPPVEDEDAPFVSIMVPAHNEGIVIVRTVEALLNFNYPQDRYEIIVINDNSSDNSAELLANVQKKAVNRNLQIINTDNITGGKGKSNALNIGFKQAKGDVIAIYDADNTPEPNALRYLVGELIASEEYGAVIGKFRTRNRNASLLTRFINIETLAFQWMAQAGRFQLFKLCTIPGTNFIVRRSIIEAIGGWDDKALAEDTEISFRIYMMGYKIKFQPKAVTWEQEPQTLSVWFRQRTRWVKGNIYVIVKNAKLLFNPKASRIRFDILYFLSIYFLLMTSLVLSDIMLVLSMSGYLTTTLQGFSNSLWLLAILLFIFSTFVSITTEKGEMTLENILIIALMYITYSQMWLVVAAYGMVMYIKENVFHKQTQTKWYKTERFK | failed
MTIFRFADGNSMTTKTNLLPHIPSSDAIISRWRWLAIIVSLVMALLASAFILLLSNAVDREVAQLNTSSELREQADLVLISLIDMAVADRSYAKNHKAEDKARFEHAARNLDDILEYIELIVYAHPQWYEWFTSFKKEVEARKAFMNDHMRALDALPDQSSQPSSSSEIPKIQVARLAQLMTSFINGDDVVRQKQREGIALMRAALTLAAIVSVVSTFMSAYFVINRFHRDVRSLKMYQLLLHSENIALEARVKERTQELERARNHAEKERQRVEMLLQDVSHRIGNSLGTVSSLLGLQLNRSDNEEVRSVLGAARDRIQTISTAHRRLRLSDDMETTLLAEFLSSVVHDVELAMPLELRENITIHTNFKECRLSSRDATTLGIILGELLTNSLKHAFPDKRSGDIYISFGPQKNGQLMLIVEDNGVGMKNQTQEKKTGLGRVVVEQLCMQFGEKPLFETSALGGTKIVIPLPKLTPNASKEAYA | failed
MTIKTLDISPVGRVEGDLDVRVEIEDGQVVNAWTHAELFRGFEIILRGKDPQAGLIVTPRICGICGASHLTSASWALDTAWNTTVPRNAILARNLGQIVETIQSIPRYFYGLFAIDLTNKKYRSSRFYDEAVRRFAAFTGKSYELGVTISSKPVEIYALFGGQWPHSSYMVPGGVMCAPTLTDITRAWAILEYFRTNWLEPVWLGCSLERYEEIQTYDDFMDWLEADIKHRESDLGFYWRMGLDIGLDRYGAGVGKYVSWGYLPHEDKYQKPTIEGRNAAMIMKSGVYDSFSDTHTLMDHTFARENTTHSWYDEGNADVHPFDRTTKPTQKNTKDFKNAYSWSTAVLHQDFGRLEVGPLARQLVAGGQHGESWQHYDGFILDAFQKMGGASIHLRQLARVHEIVKLYRQAERCLREFVLNDPWYIKPKEKDGRGWGATEASRGSLCHWIDIEGGKIKNYQVIAATTWNVGPRDSEGVRGPIEEALIGTPIEDSRDPVEVGHVARSFDSCLVCTVHAHDAKTGEELARFRTA | failed
MTILSAALLLFLILDPLGNIPVFLSVLKPLPPKRQRFVLARELLIALCVLMAFLWGGKYALELMHLRQESVAIAGGIVLFVIGIRMIFPRPEGLMGEIPDGEPFIVPLAIPLVAGPSGMAAVMLMGSNEPTRLWDWSLALMIAWIGASSILAAAPLLYKLLGHRALTAIERLMGMLLVAISVQMFLDGLGTYFKLPVSI | failed
MTILVEHFVPDSRVDEKKVIEERDNELVLDGGFVVPKSKETDAFDAPDMNFLGHSFRDYENGESERQQGVEEFYRMQHIHQTYDFVKKMRKEYGKLNKMEMSIWECCELLNNVVDESDPDLDEPQIQHLLQTAEAIRRDYPDEDWLHLTALIHDLGKVLLLPEFGGLPQWAVVGDTFPVGCTFDSANIHHKYFKGNHDINNPKYNTKNGVYTEGCGLDNVLMSWGHDDYMYLVAKKNGTTLPHAGLFIIRYHSFYPLHKAGAYTHLMNDEDRDDLKWLHVFNKYDLYSKSKVLVDVEQVKPYYISLINKYFPAKLKW | failed
MTIMTARFASILLGGCLAASLFSGPVFAVGNDNSTMPTCKKGEIYDQKTKKCVKQQSANVSDENRTDYAYSLAKAGRYEEALAMLDTVKDQNSAEVLNYRGYATRKLGRTDEGISYYLQSVKMDPQYAKVREYLGEAYVIKGRLDLAKEQLTTIKAICGTACEEYQDLNAAILNPSKI | failed
MTIPELPKDLIEEILCYVPATYLKRLRSTCKGWNRLFKDDRRFAKKHYDKAAKQFLPLMSTNEELCAMSVNLHGTIPSLEVKDKPWLFVSDSKHCDIEISRIFHSGGLLLCFSRDGEISIIVWNPLTSETRLIRTRNRRDKGRNFVLGYYQEDKKTYYKILSFYLDSKDFEIFEFNSDSWRFIDDICPGLSLLYSDQCVSLKGNTYMFAIDDLSVSLLKYDFSTETSVPVPLPYKSRSFEAISLSVVREEKLSVLLQRDKSSKTEIWVTNVIDETTTKVMVVSWSKVLSLDLSPDLKIRYGESFLLDEEKKVIMIFNNRMEEENKSEDKLYIIGDDDNKATQVYTIHGYGPAVFNYFPSLVQIEQSSRQEEKS | failed
MTIPNQIEVRGGRVHNLKNIDVDIPLNKFVAISGLSGSGKSSLAMGILYEEGSRRYLDALSTYMRRRIKQGSQVDVTSVKHIPSALALRQRPSVPNERATVGTMSETFNILRLIFSRLGSPVCPNGHRLKPSLKIAESMSLSGEKMGQLTCPVCGENFYAPSAEQFAFNSEGACIECGGTGKVRQLDEDKLIADENLSIKEGAVASWSLPGRNFMPNVAEYAGVRIDIPYKDLTAKEKDFVLNGPEKKYKMDFLSGTGRVFHDFNVLYENAHQAVYRSAQTSKSERAQKRIAEFFTYSICPVCHGSRLKPELLKQWVGNSNINQVSQKQLGELPTWADQIQAELPANMHKMAHALFAEFLDNLQPLLDLGLDYLTMARNGNTLSTGELQRIQLARTLRTETTGVLYVLDEPSIGLHPANVAGLIKVLRKLVNQGNSLVVVDHNVDIIAAADEVIEIGPGSGEKGGQILDHGPISTIKNDQQSLIRPYLDGSAQLLARKIANQINNDGISFEVKNYFNLKDIKANIPLNQLTAVTGFSGAGKTSLILDSLVPAIKAESKNEKLPKQIINFSAPVSNVVGVDASPIGKSTRSTVATYTSIMNNLRRLFASQPLAKEKHFTPTYFSYNNKQGACPTCGGTGIVTLDIQFLPDMQQVCPTCHGDRYNQKVQQVKWQGMSIVDILNLDIEGALPLFKRVPKIERELKLLKEVGLDYLHLGESTPTLSGGEAQRLKLVTHLSHKQSDTLFVFDEPTIGLHPLDVKTLVKVMQKLLDQGATLITITHDLNLIANCDYIIDLGPQGGNNGGQIVASGRVMDLIKDPHSLTTQYLAVYCENLICLKIIIDLLA | failed
MTIPYKEQRLPIEKVFRDPVHNYIHVQHQVILDLINSAEVQRLRRIKQLGTSSFTFHGAEHSRFSHSLGVYEITRRICEIFQRNYSVERLGENGWNDDERLITLCAALLHDVGHGPYSHTFEHIFDTNHEAITVQIITSPETEVYQILNRVSADFPEKVASVITKQYPNPQVVQMISSQIDADRMDYLLRDAYFTGTEYGTFDLTRILRVIRPYKGGIAFAMNGMHAVEDYIVSRYQMYVQVYFHPVSRGMEVILDHLLHRAKELFENPEFDYDLQASLLVPFFKGDFTLQEYLKLDDGVLSTYFTQWMDVPDSILGDLAKRFLMRKPLKSATFTNEKESAATIAYLRELIEKVGFNPKYYTAINSSYDLPYDFYRPNKDRHRTQIELMQKDGSLVELATVSPLVAALAGQSQGDERFYFPKEMLDQGNKKHYDLFDETYREFSSYIHNGALVLKK | not failed
MTIQPDFNDEPGAFAMTHTHTALDKTLKERIFHALAFEGLAVLLTAPVLSLVMNKPLAHMGALTLMFSTVAMLWNMLFNSLFDRAQRRMGFQRTLQVRVLHAMLFELGLIVVLVPLAAWWLSIGLVEAFLLDMGLILFFLPYTMAFNWSYDVLRARLVESRQAKAAGCDAG | failed
MTIQSEQALEQGLIKTLVSMNYQKIEIADENALIVNFRNQLNIHNNIELTDDEFNRIMIHLDSGSIFVKAEKLRNRFPLTRDDESVKWIEFLNTQEWCKNEFQVSNQITDEGRRKCRYDVTILVNGLPLVQVELKKRGVELKQAYSQVQRYHKTAFKGLFNYIQIFVISNGVNTRYFANNPNQGYKFTFPWADFKNNHIDRLDLFAAMFFEQCTLGKMLAKYVVLHQSDKCLMILRPYQFYAVEALLDKVANSVKNGYIWHTTGSGKTLTSFKAAQLIAEMSDIDKVLFVVDRHDLDTQTKKEYDAFAPGAVDSTDNTKELVKALQGKKKLMITTIQKLNNAVQKDRYSKGLQGVKDKNIVMIFDECHRSQFGEMHSNITGFFSKIRYFGFTGTPIFADNANNGCTTKDIFGERLHEYLIKDAIADENVLGFLVEYHGKWKRKSENDKQVKSIDTAEVLLKDERIASITDFILSNYNSSTYERDFNAMLAVGGVKMLIKYYDMFKSRNHDLKIATIFTYTQNEESEDEFTGLGQGFVSVQNTRDILESYIKDYNETFGTEFDTDHFGLYYDDINKRMKNRQIDLLIVSDMFLTGFDAKKLNTLYVDKNLNYHGLLQAFSRTNRVLNEKKKFGKITCFRDLKQQTDDAIKLYSNNKSSEVVLMKPYEKLVERFNEMAAEFLSYFPTVKSVGNLESELDKRRFVILFRAMLRLRNEVKGYNEFDAEDLTIEEQRFADYQSKYLDMSNEFAITSEKEDAESILQDIDFELELVHRDIINVMYILALLQDLKPESSSYPKDRKAVLDTMDSNPELRSKIALIDNFIKLHIDGRQSNDLPADMESDLDKYIATQKAIAIEQVATEEGIDSTLLHEYISEYEYLGKPKNEIIKRAIDPLKLSFMDAQSKKKSLIDKMKDIIKLFSWN | failed
MTIRAGSLDRRTLLRGAIATAAMGSFAVACSSPSSEDKESDSGPKGEKSANNPFGAAANSTVEAAIFDGGYGTDYVDYANQVLGSQVKGLKVQVKPVVDIAPQLQPRFVGGNPPDLIDNSGEDQIGFLGILDQLEELDDLFEASTYEGKKIADIVYPGVKDPGTFKDKFVALNYVMTVYGVWYSKTLFEENGWTPPKTWDEALDLGQEAKKKGKYLFVHGKEAATYYRTLLIDSAIKEGGDEVRLALENLEKGCWSHPAVQGVIKVMETMVKQKMFVPGGSGTQFQKAQAIWSNDQKALLYPSGGWIENEMKKATKADFQMTGIPSMTLTDKPALPYEALRAAAGEPFIVPKQGKNPAGGKEVLRAMLSEKAAANFSKTKLAPTIVKGTVPADGYGSTALVSQTKMLEAAGTNIFNYMFVETYGLNTDQLVPWNSFLAGDLDGKGLTSALQKISDKVREDDSVDKVKVS | failed
MTIRMIPHPIFSSPTKRRREKPDPPARAGAAQPSGPARMTPQQQTEWQQRLIALLESQPPDDDGAHDLSHLHRVWAVARTLLAHYPDADSIVVMAGSYLHDLVNLPKNHPQRQLASHWSAERARQLLADSGLTEAQLDNLAHAIEAHSYSAAIPPRTLEARIVQDADRMDALGPVGLARMFYVSGRMGRALAHPLDPLAEHRGRDDQAWAIDHIDVKLAKLPGMMQTEAGRAMAERKLEWLFHFRDEFCRDWMARLEHHHHHH | not failed
MTISEVSKKYELSADTLRYYERIGLIPPVNRNKSGIRSFTEEDCEWVNFIKCMRGAGLSIETLIEYVAMFQQGSSTIKARKELLIEQRNQLAKRIEEMQKTLERLNFKIDRYEEGIIEKEKVLKSSRNKKMEAVS | failed
MTISEVSKKYELSADTLRYYERIGLIPPVNRNKSGIRSFTEEDCEWVNFIKCMRGAGLSIETLIEYVAMFQQGSSTIKARKELLIEQRNQLAKRIEEMQKTLERLNFKIDRYEEGIIEKEKVLKSSRNKKMEAVSYE | not failed
